# Literature values, collected in paper PMC7228754.
# Target: Rab1b (Homo sapiens) (UniProt Q9H0U4)
# Sequence (Q9H0U4 whole entry): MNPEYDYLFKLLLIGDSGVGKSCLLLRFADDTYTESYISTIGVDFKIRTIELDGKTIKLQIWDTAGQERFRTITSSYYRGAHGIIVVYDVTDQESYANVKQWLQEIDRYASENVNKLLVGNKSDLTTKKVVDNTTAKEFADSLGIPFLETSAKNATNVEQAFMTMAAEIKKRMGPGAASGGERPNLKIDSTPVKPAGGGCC
# AnkX, sequence (Q5ZXN6 whole entry): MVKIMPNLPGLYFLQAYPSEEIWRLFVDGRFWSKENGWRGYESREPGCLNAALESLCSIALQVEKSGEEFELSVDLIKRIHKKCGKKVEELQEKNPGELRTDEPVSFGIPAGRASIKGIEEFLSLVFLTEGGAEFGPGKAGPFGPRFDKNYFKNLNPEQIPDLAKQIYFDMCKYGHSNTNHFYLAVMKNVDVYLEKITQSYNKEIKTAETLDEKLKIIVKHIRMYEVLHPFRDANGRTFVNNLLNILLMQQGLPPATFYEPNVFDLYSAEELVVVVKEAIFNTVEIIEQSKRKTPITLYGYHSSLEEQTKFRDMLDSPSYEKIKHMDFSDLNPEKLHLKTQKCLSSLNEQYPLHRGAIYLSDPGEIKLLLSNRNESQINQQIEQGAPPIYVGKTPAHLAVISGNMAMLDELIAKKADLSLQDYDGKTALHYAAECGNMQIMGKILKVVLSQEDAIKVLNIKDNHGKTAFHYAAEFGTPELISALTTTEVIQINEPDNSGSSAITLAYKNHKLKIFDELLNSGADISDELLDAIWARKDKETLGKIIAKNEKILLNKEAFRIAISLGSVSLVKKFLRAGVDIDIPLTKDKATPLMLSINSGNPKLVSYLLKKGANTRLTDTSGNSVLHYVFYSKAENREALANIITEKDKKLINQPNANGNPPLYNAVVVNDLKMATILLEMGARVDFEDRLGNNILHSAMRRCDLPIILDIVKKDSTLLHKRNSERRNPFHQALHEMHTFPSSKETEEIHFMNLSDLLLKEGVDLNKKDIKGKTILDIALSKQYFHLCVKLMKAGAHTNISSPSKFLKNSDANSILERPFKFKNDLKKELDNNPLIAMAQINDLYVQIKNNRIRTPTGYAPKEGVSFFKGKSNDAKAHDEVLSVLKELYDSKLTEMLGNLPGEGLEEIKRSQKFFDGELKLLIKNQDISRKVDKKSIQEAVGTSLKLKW
substance,measurement,value
AnkX (from UniProt Q5ZXN6),Kd,122 µM
